These results are taken from patent publication US20090123479A1 (published 2009).

Assay [1] addresses T1, recombinant human IL-23 (human, UniProt Q9NPF7 20-189; P29460 23-328).
T1 construct: also called hIL-23
T1 sequence 1: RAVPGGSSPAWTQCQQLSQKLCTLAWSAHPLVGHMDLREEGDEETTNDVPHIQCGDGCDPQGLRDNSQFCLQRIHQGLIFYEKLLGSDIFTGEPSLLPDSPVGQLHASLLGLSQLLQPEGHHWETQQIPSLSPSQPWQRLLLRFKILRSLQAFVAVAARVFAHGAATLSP
T1 sequence 2: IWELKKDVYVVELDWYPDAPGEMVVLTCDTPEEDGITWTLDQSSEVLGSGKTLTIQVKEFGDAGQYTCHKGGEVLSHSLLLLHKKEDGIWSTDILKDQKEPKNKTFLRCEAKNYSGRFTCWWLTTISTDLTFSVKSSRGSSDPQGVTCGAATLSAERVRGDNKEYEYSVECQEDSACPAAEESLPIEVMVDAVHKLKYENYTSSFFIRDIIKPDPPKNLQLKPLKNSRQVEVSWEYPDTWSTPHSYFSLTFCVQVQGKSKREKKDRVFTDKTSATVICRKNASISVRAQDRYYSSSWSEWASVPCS
Kind of assay: SPR (Biacore 3000), CHO supernatant antibody captured on Protein A or anti-human IgG, IL-23 analyte at 256, 64, 16, 4 nM.

The target in assay [2] is T1, recombinant human IL-23. As to the kind of experiment: SPR (Biacore 3000), purified antibody captured on Protein A or anti-human IgG, IL-23 analyte at 256, 64, 16, 4 nM. The method, then: (§1) Protein A or an anti-human IgG (Biacore BR-1008-39) was immobilised on a Biacore CM5 chip by primary amine coupling in accordance with the manufacturer's instructions. Anti IL-23 antibodies were captured on this surface and after a period of stabilisation, […] was passed over the antibody captured surface and a binding sensorgram was obtained. […] All runs were double referenced with a buffer injection over the captured antibody surface. Data was analysed using the 1:1 model using the software inherent to the Biacore 3000 or T100 depending upon which machine was used to generate kinetics. Analysis was carried out at 25° C. using HBS-EP buffer. Data presented in Tables 3-6 are on tissue culture supernatants of CHO cells transiently expressing the antibody of interest unless otherwise indicated. Data was generated using concentrations of IL-23 (256, 64, 16, 4, 1 and 0.25 nM) The data shown for the humanized variants is representative of a number of runs, The chimeric mAb (8C9H6.HC1LC1) was only run once in each experiment, so data shown for this mAb is from that one run, […]

Assay [3] concerns the target T1, recombinant human IL-23. Kind of assay: SPR (Biacore 3000), CHO supernatant antibody captured on Protein A or anti-human IgG, IL-23 analyte at 100, 10, 1 nM. The method, then: as §1, with “indicated.” for “indicated. Data was generated using concentrations of IL-23 (256, 64, 16, 4, 1 and 0.25 nM) The data shown for the humanized variants is representative of a number of runs, The chimeric mAb (8C9H6.HC1LC1) was only run once in each experiment, so data shown for this mAb is from that one run,”

The target of assay [4] is T1, recombinant human IL-23. As to the kind of experiment: SPR (Biacore T100), purified material captured on Protein A or anti-human IgG, IL-23 analyte at 256, 64, 16, 4, 1 nM. The method, then:
as §1

The target in assay [5] is T1, recombinant human IL-23. Kind of assay: SPR (Biacore T100), CHO supernatant antibody captured on Protein A or anti-human IgG, IL-23 analyte at 10 concentrations 128-0.25 nM. The method, then:
as §1, with “indicated.” for “indicated. Data was generated using concentrations of IL-23 (256, 64, 16, 4, 1 and 0.25 nM) The data shown for the humanized variants is representative of a number of runs, The chimeric mAb (8C9H6.HC1LC1) was only run once in each experiment, so data shown for this mAb is from that one run,”

For assay [6], the target named is T1, recombinant human IL-23. Kind of assay: sandwich ELISA (optimised protocol, OD450): plate coated with anti-human IL-12, antibody pre-incubated with constant human IL-23, bound antibody detected with anti-human IgG gamma chain HRP; purified antibody. Here is the method:
Optimised assay conditions: Plates were coated with anti human IL12 at 2 μg/diluent (phosphate buffered saline). 50 μl/well of this mixture was incubated overnight at 4° C. The plates were then washed three times with Phosphate Buffered Saline with 0.05% Tween 20 (PBST). Plates were blocked with 4% skim milk powder (Fluka BioChemika #70166) PBS 200 μl/well for a minimum of 1 hour at room temperature. The plates were then washed three times with Phosphate Buffered Saline+0.05% Tween 20 (PBST). Various concentrations of antibody were incubated in a separate plate with a constant concentration of IL-23 for 1 hour at room temperature. 50 ul of each mixture were transferred to the assay plate and incubated at RT for 1 hr. They were then washed three times with Phosphate Buffered Saline+0.05% Tween 20 (PBST). […] 50 μl/well of the detection antibody was added and incubated at RT for 1 hour. The plates were then washed three times with Phosphate Buffered Saline+0.05% Tween 20 (PBST). 50 μl/well of TMB was added to the plates and incubated at RT for 10 min. 50 μl/well of 1 MH₂SO₄ was added. The plate was read at OD450 nm using the SOftmaxPRO versamax plate reader.

B1: A3M0 (antibody, human IgG1, kappa, V domains shown)
VH: QVQLVQSGAEVKKPGSSVKVSCKASGYTFTSYGITWVRQAPGQGLEWMGENYPRSGNTYYNEKFKGRVTITADKSTSTAYMELSSLRSEDTAVYYCARSEFISTVVAPYYYALDYWGQGTLVTVSS
VL: DIVMTQSPDSLAVSLGERATINCKASKKVTIFGSISALHWYQQKPGQPPKLIYNGAKLESGVPDRFSGSGSGTDFTLTISSLQAEDVAVYYCLQNKEVPYTFGGGTKVEIKR
notes: Full length chains; also called humanized mAb A3M0
On to B1, for which, in assay [1], the equilibrium dissociation constant (Kd) was determined as 1.1 nM, the koff is 0.00033 s⁻¹ and the kon was 300000 M⁻¹ s⁻¹.

B2: chimeric 8C92H6 HC1LC1 (antibody, V domains shown)
VH: QVQLQQSGAELARPGTSVKLSCKASGYTFTSYGITWVKQRTGQGLEWIGENYPRSGNTYYNEKFKGKATLTADKSSSTAYMELRSLTSEDSAVYFCARCEFISTVVAPYYYALDYWGQGTSLVTVS
VL: DIVLTQSPASLAVSLGQKATISCKASKKVTIFGSISALHWYQQKPGQPPKLIYNGAKLESGVSARFSDSGSQNRSPFGNQLSFTLTIDPVEADDAATYYCLQNKEVPYTFGGGTKLEIKR
notes: Murine variable regions with human constant regions; also called 8C92H6.HC1LC1 Chimera; 8C9 chimera
B2: the equilibrium dissociation constant (Kd) turned out to be 1.8 nM in assay [2], 1.4 nM in assay [3], 2.2 nM in assay [4] and 0.91 nM in assay [5]. In addition, the koff in assay [2] was found to be 0.00044 s⁻¹; in assay [3], 0.00039 s⁻¹; in assay [4] it was 0.00043 s⁻¹; in assay [5], 0.00029 s⁻¹. Moreover, the kon in assay [2] was determined as 240000 M⁻¹ s⁻¹; in assay [3], 270000 M⁻¹ s⁻¹; in assay [4], 200000 M⁻¹ s⁻¹; in assay [5], 320000 M⁻¹ s⁻¹. The concentration for a half-maximal effect (EC50 (read off the curve)) in assay [6] is about 0.06 nM.
